Reference: the DeepSol protein solubility set

Experiment: soluble on expression in E. coli; label from the status in PepcDB or PDB records

**Q.** With “MSLANLYLMRSRSDELNTIISTNLLKNYSKIYKNIAIYCPVIYIHRVPVLQGWLEEFNINQTVKSAYGFTFREAMEEFSKDPHNFFNVILEEYEELKRKYDFVLVNSFCEFGILDGFDLSIKLAKNLNTPIAAIINDEDKLIAQKYFDHALDGRNYVLINENFNFEEVQKLKEYDFITPHRFKYELIKQSIKNKKTVVLPESNDERILKAAEILLKSKVVDLILLGDEEKIKQDATRLSLDLSAMQIMNPLNSEYNQKFTSILYEARKSKGMSLEEAKMLVQDKTYFGTLLIHTGKADAMVSGASTTTAETIRPALQLIKTKEGISSVSGIFFMGLEDQVLAFADCAVNPSPTAEQLATSAYVSAMTAKSFGLEPRIALLSYSSGDSGKGESVDLVKEALKIAKEKYPELNIDGPMQFDCAYDPKTAAKKMPNSKIAGHANVYIFPDLNAANICYKAVQRTANALAIGPILQGLKKPVNDLSRGCLVDDIVDTVILSAIQAQEGHHHHHH” as the sequence, how does the “soluble on expression in E. coli” value read?
**A.** soluble

**Q.** With “MASTNTNLQKAIDLASKAAQEDKAGNYEEALQLYQHAVQYFLHVVKYEAQGDKAKQSIRAKCTEYLDRAEKLKEYLKKKEKKPQKPVKEEQSGPVDEKGNDSDGEAESDDPEKKKLQNQLQGAIVIERPNVKWSDVAGLEGAKEALKEAVILPIKFPHLFTGKRTPWRGILLFGPPGTGKSYLAKAVATEANNSTFFSISSSDLVSKWLGESEKLVKNLFQLARENKPSIIFIDEIDSLCGSRSENESEAARRIKTEFLVQMQGVGVDNDGILVLGATNIPWVLDSAIRRRFEKRIYIPLPEAHARAAMFRLHLGSTQNSLTEADFQELGRKTDGYSGADISIIVRDALMQPVRKVQSATHFKKVRGPSRADPNCIVNDLLTPCSPGDPGAIEMTWMDVPGDKLLEPVVSMWDMLRSLSSTKPTVNEQDLLKLKKFTEDFGQEG” as the sequence, how does the “soluble on expression in E. coli” value read?
**A.** soluble

**Q.** Which “soluble on expression in E. coli” value does the source give for “MSLRVYVTGNITVDETWSIPDIPKKGASIHGVKVSQDIGGKGANQAIILSRCGIETRLIAATGNDSNGAWIRQQIKNEPLMLLPDGHFNQHSDTSIILNSADGDNAIITTTAAADTFSLDEMIPHMADAVAGDILLQQGNFSLDKTRALFQYARSRGMTTVFNPSPVNPDFCHLWPLIDIAVVNESEAELLQPYGVKTLVITQGAAGAWLVQEGQRQFCPAVPAEALDTTGAGDTFLAVMLASALLRGVAPDALALAHASRAAAITVSRRGTLSAFPGSRELAALLTTDGAEGHHHHHH” here?
**A.** soluble

**Q.** With “MASRGKTETSKLKQNLEEQLDRLMQQLQDLEECREELDTDEYEETKKETLEQLSEFNDSLKKIMSGNMTLVDELSGMQLAIQAAISQAFKTPEVIRLFAKKQPGQLRTRLAEMDRDLMVGKLERDLYTQQKVEILTALRKLGEKLTADDEAFLSANAGAILSQFEKVSTDLGSGDKILALASFEVEKTKK” as the sequence, how does the “soluble on expression in E. coli” value read?
**A.** not soluble

**Q.** For “MGSDKIHHHHHHMMNERIKQRRKELGLTQPSIAKTIGLTKATISLWESGSTSPKGENLHALAKALRCAPEFLLFGNDSIKPEPNAEWAGGFETWGSNSPLGDDEVEIPFYMEVELAAGDGIIDCREYQGPKLRFAKSTLKRQGVTSDHAACVKVNGNSMEPVLPNGSTVGVDTAHTDIVDGKMYAINHDGMLRVKMLYKLPGGGLRLRSYNLDEYPDERLDAEELKQVKVIGKVFWYSVLV”, which “soluble on expression in E. coli” value is on record?
**A.** not soluble

**Q.** Which “soluble on expression in E. coli” value does the source give for “MTTNNDFYFALLRISILQLLKAQGFDRARPSLVDVMTDLYAKFLSLLASEVSSIAQARCDQDDTIALQDITLALENLGIVKPTNVLDVYDENSELSSSRGMEKFKDWCIYSTQLTDARITALPTVELLQSEEKESDPLSAIPDYLNQLLQNKGAKQKLETKNRKTELIEDLINNNGLDDWIKLVIARQRINMIERASKKESQNVPALPHIAGYKSSILSRHHHTTITNEDRMPSAMTPRDEDALTEIQENPFVTSKLPIMRKENRLENITLSFEDEELESLGEVEGPNQKSQENNNEESFKENNKSLTESPHGDDRDISMFQFDSNVDTKWAEQEDMDSTFQRRTSLDYGGYF” here?
**A.** not soluble

**Q.** For “MKCGLEIHVQLDTRSKLFCRCPTDYQEAPPNTNICPVCLNQPGAKPYPPNRSALEGALKIALMLDCRINPEITYFMRKHYNYPDLPSGYQRTSIPVGLEGELNGVRIREVHIEEDPGQYKPDQGTVDFNRSGIPLIEIVTEPDMTSPEEARNFLRELIRVLEYSGCARGEGTMRADVNISLEGGKRVEIKNINSIKGAYKALKFEMIRQKNLLKRGVEVKQETRAFLESQMITVSMRLKEEAEDYRYIPDPDLPPMKFTDEVVEGLRERIPEAPHLKVKRFMEEYGLREEDARVLTSELELADAFEEVAGSIDPEFAALWMRDELKRVLYYNKISFAESMITPGDIIELLAMIRKKEITSKAAKKIIEEMPLNKKGPREIATEMGLIGIIDESEVIRAVEQAIRENPGAVEDYHAGKEAAINFLVGQVMRMTRGKAEPERTVELIKERI”, which “soluble on expression in E. coli” value is on record?
**A.** soluble

**Q.** For “NVDKAIKFGQIQNKAVTLGQGGFFNDDFSDGQAGVHYPDLDNAEPMPESEKLQYEKRLVGFYLSHHPLDRFRRDWEAFASLTLDKRDVTPSKL”, which “soluble on expression in E. coli” value is on record?
**A.** not soluble

**Q.** With “MGSDKIHHHHHHMMKHLTLWHTNDVHSHLEHWPRIFNFLKEKRTAADKENQSALFFDIGDFLDRVHPLTEGTNGLANTDLLNQLPYDVVTFGNNEGTTLAHEDLDKLYEHAVFPVVCCNFYTNKECTEQPDWVKSIVYKEIEQVKIAIIGATAPFRDYYEEMGWGIEEPISSIKKQVAGLDEDTDVVILLSHLGLPSDERIALEIPEVDVILGGHTHHLLETGKIEGNALLAAAGRWGEYIGKVDIELDENNQILTKTAMTFKTEDLPAAPNEANEIQGFFDKGRAELSEKVVAIPGKLAHNWFDDSEIAHILNEAVCEWTGAETFVMNAGIFMTDFEAGIVTDFDIHQMLPHPLNAIALTMSGEELEILIDGIYRKKAELQDIPLRGFGFRGEYFGTVLMERAGFDAENQVALFDNKPIDKTREYRIATHDTFVFAPFFPIVKQIKRKEVYTPELLRDILKWKLKKMYGQEEDK” as the sequence, how does the “soluble on expression in E. coli” value read?
**A.** not soluble

**Q.** For “SGAISGDSLISLASTGKRVSIKDLLDEKDFEIWAINEQTMKLESAKVSRVFMTGKKLVYILKTRLGRTIKATANHRFLTIDGWKRLDELSLKEHIALPRKLESSSLQLSPEIEKLSQSDISWDSIVSITETGVEEVFDLTVPGPHNFVANDIIVHASI”, which “soluble on expression in E. coli” value is on record?
**A.** soluble

**Q.** With “MGYKPTQRDIVIIDFAPSKGYEIRKRRPALVMSKDSYNISTNLVIVCPITSLDKERPFLVPIYSEKLHTSDNAVSKVNTLQVYSLDYTEQAQRRIKYVDTLDEETFYEIAQKFLQNFSFAV” as the sequence, how does the “soluble on expression in E. coli” value read?
**A.** not soluble
